In US20250302016A1, “GENETICALLY MODIFIED NON-HUMAN ANIMAL WITH HUMAN OR CHIMERIC GENES” (Biocytogen Pharmaceuticals (Beijing) Co., Ltd., priority 2022, published 2025):

Tested on: IL2 signaling pathway (STAT5 phosphorylation) in mouse splenocytes
Experiment: Flow cytometry detection of pSTAT5 expression in T cells and NK cells after IL2 stimulation, IL2RB/IL2RG/IL15/IL15RA four-gene humanized mice
Type: cell-based
Conditions: for pSTAT5 expression (CD4+ T cell) / pSTAT5 expression (CD8a+ cell) / pSTAT5 expression (NK1.1+ cell): splenocytes, 10 μg/mL IL2
Experimental: The IL2 and IL15 signaling pathways in IL2RB/IL2RG double-gene humanized mice were detected by flow cytometry. Specifically, three 6-week old female C57BL/6 wild-type mice (+/+), three IL2RB/IL2RG double-gene humanized heterozygous mice (H/+; H/+), and three IL2RB/IL2RG double-gene humanized homozygous mice (H/H; H/H) were selected. […] No primary antibody was added to the corresponding secondary antibody control groups.
The IL2 and IL15 signaling pathways in IL2RB/IL2RG/IL15/IL15RA four-gene humanized mice were detected by flow cytometry. […] The cells were stained with: Brilliant Violet 421™ anti-mouse NK-1.1 Antibody, APC anti-mouse CD4 Antibody, and/or Alexa Fluor 700 anti-mouse CD8a Antibody, and then subjected to flow cytometry analysis.

[1] = IL2RB/IL2RG/IL15/IL15RA four-gene humanized homozygous mice (H/H)

B1: mIL2: Biotinylated Mouse IL-2 Protein, purchased from Kactus Biosystems (protein, UniProt P04351 21-169, looked up)
Interleukin-2: APTSSSTSSSTAEAQQQQQQQQQQQQHLEQLLMDLQELLSRMENYRNLKLPRMLTFKFYLPKQATELKDLQCLEDELGPLRHVLDLTQSKSFQLEDAENFISNIRVTVVKLKGSDNTFECQFDDESATVVDFLRRWIAFCQSIISTSPQ
modifications: biotinylated
notes: Biotinylated Mouse IL-2 Protein, purchased from Kactus Biosystems
pSTAT5 expression (CD4+ T cell) [1]: 5.3% | pSTAT5 expression (CD8a+ cell) [1]: 12.5% | pSTAT5 expression (NK1.1+ cell) [1]: 70.7% | phosphorylated expression of STAT5 after stimulation (in words) (splenocytes of +/+ and four-gene humanized homozygous (H/H) mice, 10 μg/mL): phosphorylated expression of STAT5 was detected | pSTAT5 expression (CD4+ T cell) (wild-type C57BL/6 mice (+/+)): 16.6% | pSTAT5 expression (CD8a+ cell) (wild-type C57BL/6 mice (+/+)): 89.9% | pSTAT5 expression (NK1.1+ cell) (wild-type C57BL/6 mice (+/+)): 41.6%
